Experimental data from the supplement of paper PMC7125110.
± gives the standard error. For some assays here: Fewer inactive variants are shown than the library holds.

B1: glmS ribozyme (parent)
chain: AUAAAAGCGCCAGAACUACAGAAAUGUAGUUGACGAGGAGGAGGUUUAUCGAAUUUUCGGCGGAUGCCUCCAAA

Columns and labels:
Settings in all cases: with glucosamine-6-phosphate
glucosamine-6-phosphate [1] = variants of: B1; test: kcat; higher = faster cleavage; RNA array
Outline: (§1)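 Barcoded ribozyme variants were transcribed in situ on sequenced MiSeq chips by E. coli RNA polymerase. At 37 °C, a hybridised Cy3 probe tracked them while glucosamine-6-phosphate (40 μM to 10 mM) in HEPES/KCl/Mg(OAc)2 buffer flowed in and tiles were imaged over ~14 h. Per-tile medians of signals normalised to baseline and to non-cleaving reference variants were fit to one- or two-exponential decays, giving kobs. kcat and KM came from weighted Michaelis–Menten fits across concentrations.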

glucosamine-6-phosphate [2] = variants of: B1; test: self-cleavage kobs at 40 uM GlcN6P; higher = faster cleavage; RNA array
Outline: as §1

glucosamine-6-phosphate [3] = variants of: B1; test: self-cleavage kobs at 160 uM GlcN6P; higher = faster cleavage; RNA array
Outline: as §1

glucosamine-6-phosphate [4] = variants of: B1; test: self-cleavage kobs at 640 uM GlcN6P; higher = faster cleavage; RNA array
Outline: as §1

glucosamine-6-phosphate [5] = variants of: B1; test: self-cleavage kobs at 2500 uM GlcN6P; higher = faster cleavage; RNA array
Outline: as §1

glucosamine-6-phosphate [6] = variants of: B1; test: self-cleavage kobs at 10000 uM GlcN6P; higher = faster cleavage; RNA array
Outline: as §1

glucosamine-6-phosphate [7] = variants of: B1; test: KM; higher = weaker cofactor use; RNA array
Outline: as §1

Variant	kcat (glucosamine-6-phosphate [1])	self-cleavage kobs at 40 uM GlcN6P (glucosamine-6-phosphate [2])	self-cleavage kobs at 160 uM GlcN6P (glucosamine-6-phosphate [3])	self-cleavage kobs at 640 uM GlcN6P (glucosamine-6-phosphate [4])	self-cleavage kobs at 2500 uM GlcN6P (glucosamine-6-phosphate [5])	self-cleavage kobs at 10000 uM GlcN6P (glucosamine-6-phosphate [6])	KM (glucosamine-6-phosphate [7])
U30G U54G	0.00551 ± 0.002 s⁻¹	0.000203 ± 4.6e-05 s⁻¹	0.000615 ± 0.0001 s⁻¹	0.00144 ± 0.00032 s⁻¹	0.00254 ± 0.00053 s⁻¹	0.00743 ± 0.0011 s⁻¹	–
G32C U46G	1.21e-05 ± 4.8e-07 s⁻¹	–	–	–	–	–	0.349 ± 0.15 mM
A14U A39U A52G	0.00264 ± 0.00045 s⁻¹	–	–	–	5.72e-05 ± 1.2e-05 s⁻¹	0.000214 ± 3.7e-05 s⁻¹	–
C10A U57A	< 1e-05 s⁻¹	–	–	< 1e-05 s⁻¹	–	–	–
C68G U69C	1.67e-05 ± 1.9e-06 s⁻¹	–	–	–	–	< 1e-05 s⁻¹	–
C61G C71A	1.34e-05 ± 3.8e-06 s⁻¹	–	–	–	–	–	–
C16G U57G	2.25e-05 ± 2.8e-06 s⁻¹	< 1e-05 s⁻¹	–	–	–	–	–
C10A G38C	< 1e-05 s⁻¹	–	< 1e-05 s⁻¹	< 1e-05 s⁻¹	–	–	–
C11G C61U	< 1e-05 s⁻¹	< 1e-05 s⁻¹	< 1e-05 s⁻¹	–	< 1e-05 s⁻¹	< 1e-05 s⁻¹	–
C16G A39C U54G	0.00043 ± 5.6e-05 s⁻¹	–	–	0.000133 ± 2.1e-05 s⁻¹	0.000227 ± 5.8e-05 s⁻¹	0.000394 ± 6e-05 s⁻¹	1.5 ± 0.41 mM
G29U G38A G59A C67A U69G	2.86e-05 ± 6.2e-06 s⁻¹	–	–	–	–	–	–
G13U G41U	7.91e-05 ± 6.7e-06 s⁻¹	–	–	–	3.07e-05 ± 8.6e-06 s⁻¹	5.57e-05 ± 8.2e-06 s⁻¹	4.15 ± 0.89 mM
A15G A39U	0.0505 ± 0.019 s⁻¹	0.0006 ± 7.9e-05 s⁻¹	0.00146 ± 0.00026 s⁻¹	0.00551 ± 0.001 s⁻¹	0.0136 ± 0.0025 s⁻¹	0.0387 ± 0.0051 s⁻¹	4.74 ± 2.3 mM
G44U U55C	9.04e-05 ± 3.7e-06 s⁻¹	–	< 1e-05 s⁻¹	–	–	4.92e-05 ± 1.3e-05 s⁻¹	8.39 ± 0.75 mM
A15G U49A	1.35e-05 ± 1.2e-06 s⁻¹	–	< 1e-05 s⁻¹	–	–	–	1.23 ± 0.55 mM
A39C U65G	0.00143 ± 8.9e-05 s⁻¹	–	7.31e-05 ± 2e-05 s⁻¹	0.000243 ± 3.9e-05 s⁻¹	0.000558 ± 9.7e-05 s⁻¹	0.0011 ± 9.8e-05 s⁻¹	3.2 ± 0.38 mM
U30A U47C C70G	4.3e-05 ± 6.7e-06 s⁻¹	–	–	–	3.41e-05 ± 1.5e-05 s⁻¹	3.72e-05 ± 1.7e-05 s⁻¹	–
U47C G51U	< 1e-05 s⁻¹	–	–	< 1e-05 s⁻¹	–	< 1e-05 s⁻¹	–
A64C U69G	1.56e-05 ± 5e-06 s⁻¹	< 1e-05 s⁻¹	–	–	–	–	–

Variant	kcat (glucosamine-6-phosphate [1])	self-cleavage kobs at 40 uM GlcN6P (glucosamine-6-phosphate [2])	self-cleavage kobs at 160 uM GlcN6P (glucosamine-6-phosphate [3])	self-cleavage kobs at 640 uM GlcN6P (glucosamine-6-phosphate [4])	self-cleavage kobs at 2500 uM GlcN6P (glucosamine-6-phosphate [5])	self-cleavage kobs at 10000 uM GlcN6P (glucosamine-6-phosphate [6])	KM (glucosamine-6-phosphate [7])
A42U U56G	0.000177 ± 1.9e-05 s⁻¹	–	–	2.06e-05 ± 8.1e-06 s⁻¹	7.54e-05 ± 1.2e-05 s⁻¹	0.000125 ± 1.7e-05 s⁻¹	3.91 ± 0.85 mM
A15G C34G	< 1e-05 s⁻¹	< 1e-05 s⁻¹	–	< 1e-05 s⁻¹	–	–	–
G44C U47G G66U C67G	0.000596 ± 0.00019 s⁻¹	–	–	0.000152 ± 5e-05 s⁻¹	0.000668 ± 0.00032 s⁻¹	0.000455 ± 0.00013 s⁻¹	–
A42G U65G	0.00591 ± 0.00097 s⁻¹	5.66e-05 ± 1.2e-05 s⁻¹	0.000279 ± 7.4e-05 s⁻¹	0.000708 ± 0.00015 s⁻¹	0.00211 ± 0.00033 s⁻¹	0.00436 ± 0.00084 s⁻¹	4.22 ± 0.93 mM
G44C C68U	8.31e-05 ± 1.5e-05 s⁻¹	< 1e-05 s⁻¹	< 1e-05 s⁻¹	–	2.65e-05 ± 1.2e-05 s⁻¹	–	5.56 ± 1.8 mM
C16G C50U	< 1e-05 s⁻¹	–	< 1e-05 s⁻¹	–	–	–	–
G41C C71A	0.000115 ± 2e-05 s⁻¹	–	–	5.78e-05 ± 1.1e-05 s⁻¹	0.000181 ± 2.7e-05 s⁻¹	0.000103 ± 8.1e-06 s⁻¹	–
A15G U69A	0.000201 ± 4.3e-05 s⁻¹	6.42e-05 ± 9.6e-06 s⁻¹	0.000145 ± 1.7e-05 s⁻¹	0.000137 ± 1.8e-05 s⁻¹	0.000264 ± 5.2e-05 s⁻¹	0.000312 ± 4.6e-05 s⁻¹	–
U31G A36C C70G	7.04e-05 ± 3.2e-05 s⁻¹	–	–	0.000105 ± 4.3e-05 s⁻¹	–	–	–
C58A G66U	5.19e-05 ± 5.8e-06 s⁻¹	–	–	–	–	4.3e-05 ± 5.6e-06 s⁻¹	–
G32U U46G	0.000316 ± 0.00012 s⁻¹	–	–	4.52e-05 ± 1.5e-05 s⁻¹	6.3e-05 ± 1.1e-05 s⁻¹	0.000169 ± 2e-05 s⁻¹	–
G40U U56G	0.00147 ± 0.00055 s⁻¹	4.98e-05 ± 1.7e-05 s⁻¹	0.000107 ± 1.6e-05 s⁻¹	0.000431 ± 6e-05 s⁻¹	0.00136 ± 0.00015 s⁻¹	0.000885 ± 0.00019 s⁻¹	–
G41A G66A	0.0028 ± 0.0014 s⁻¹	6.67e-05 ± 1.2e-05 s⁻¹	0.000116 ± 3.7e-05 s⁻¹	0.000562 ± 8.6e-05 s⁻¹	0.000832 ± 0.00018 s⁻¹	0.0028 ± 0.00037 s⁻¹	–
U54G U56G	0.016 ± 0.0043 s⁻¹	–	0.000796 ± 0.00017 s⁻¹	0.00338 ± 0.00059 s⁻¹	0.00688 ± 0.0019 s⁻¹	0.013 ± 0.0058 s⁻¹	2.79 ± 0.95 mM
G29U U69A	5.85e-05 ± 1.1e-05 s⁻¹	–	–	3.35e-05 ± 1e-05 s⁻¹	6.77e-05 ± 9.3e-06 s⁻¹	4.84e-05 ± 1.1e-05 s⁻¹	–
A53C U65G	0.00136 ± 0.0002 s⁻¹	–	8.25e-05 ± 1.4e-05 s⁻¹	0.000197 ± 2.5e-05 s⁻¹	0.000555 ± 6.7e-05 s⁻¹	0.00104 ± 0.0001 s⁻¹	3.42 ± 0.81 mM
U47G U55A	0.00811 ± 0.0025 s⁻¹	0.000281 ± 3.1e-05 s⁻¹	0.000855 ± 0.00014 s⁻¹	0.00187 ± 0.00028 s⁻¹	0.00514 ± 0.00081 s⁻¹	0.00878 ± 0.0013 s⁻¹	1.41 ± 0.6 mM
G62C C70A	1.23e-05 ± 3.2e-06 s⁻¹	–	–	–	–	–	–
C61U G63C	< 1e-05 s⁻¹	–	–	–	< 1e-05 s⁻¹	–	–
